Five substances from paper doi:10.1101/2020.12.08.416701 can be followed below.

Experiment [1] deals with TβRI ectodomain (human) (UniProt P36897). Kind of experiment: ITC.
For experiment [2] the target is unchanged. Kind of experiment: SEC-MALS.
Experiment [3] has as its target biotinylated avi-tagged TβRI (human) (UniProt P36897). Nature of the experiment: SPR.
Experiment [4] concerns the target biotinylated avi-tagged TβRII (human) (UniProt P37173). Kind of experiment: SPR.
For experiment [5], the target named is TβRII ectodomain (human) (UniProt P37173). Kind of experiment: ITC.
Sequence of TβRII ectodomain (human) (P37173 23-166): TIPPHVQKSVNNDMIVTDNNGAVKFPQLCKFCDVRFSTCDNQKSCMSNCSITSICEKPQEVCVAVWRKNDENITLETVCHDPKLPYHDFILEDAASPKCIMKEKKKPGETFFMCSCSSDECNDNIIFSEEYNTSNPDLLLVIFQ

Sequence of TβRI ectodomain (human) (P36897 34-126): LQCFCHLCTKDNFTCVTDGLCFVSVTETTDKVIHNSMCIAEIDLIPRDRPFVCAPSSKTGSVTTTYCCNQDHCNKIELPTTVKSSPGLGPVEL
Sequence of biotinylated avi-tagged TβRI (human) (P36897 34-503): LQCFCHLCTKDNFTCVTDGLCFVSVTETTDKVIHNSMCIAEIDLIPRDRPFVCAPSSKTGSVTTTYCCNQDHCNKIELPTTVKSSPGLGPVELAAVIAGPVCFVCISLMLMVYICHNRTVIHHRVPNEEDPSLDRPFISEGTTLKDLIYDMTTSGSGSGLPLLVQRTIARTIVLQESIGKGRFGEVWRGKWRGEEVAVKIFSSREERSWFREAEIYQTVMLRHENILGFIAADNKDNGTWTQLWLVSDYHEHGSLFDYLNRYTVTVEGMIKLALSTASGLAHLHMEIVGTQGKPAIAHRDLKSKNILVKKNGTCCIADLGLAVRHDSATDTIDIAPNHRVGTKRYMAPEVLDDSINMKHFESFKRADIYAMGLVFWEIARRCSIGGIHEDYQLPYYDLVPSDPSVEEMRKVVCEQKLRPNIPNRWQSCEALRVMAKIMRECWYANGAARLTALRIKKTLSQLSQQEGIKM
Sequence of TGF-β3:TβRII binary complex (P37173 whole entry, looked up, one chain of several): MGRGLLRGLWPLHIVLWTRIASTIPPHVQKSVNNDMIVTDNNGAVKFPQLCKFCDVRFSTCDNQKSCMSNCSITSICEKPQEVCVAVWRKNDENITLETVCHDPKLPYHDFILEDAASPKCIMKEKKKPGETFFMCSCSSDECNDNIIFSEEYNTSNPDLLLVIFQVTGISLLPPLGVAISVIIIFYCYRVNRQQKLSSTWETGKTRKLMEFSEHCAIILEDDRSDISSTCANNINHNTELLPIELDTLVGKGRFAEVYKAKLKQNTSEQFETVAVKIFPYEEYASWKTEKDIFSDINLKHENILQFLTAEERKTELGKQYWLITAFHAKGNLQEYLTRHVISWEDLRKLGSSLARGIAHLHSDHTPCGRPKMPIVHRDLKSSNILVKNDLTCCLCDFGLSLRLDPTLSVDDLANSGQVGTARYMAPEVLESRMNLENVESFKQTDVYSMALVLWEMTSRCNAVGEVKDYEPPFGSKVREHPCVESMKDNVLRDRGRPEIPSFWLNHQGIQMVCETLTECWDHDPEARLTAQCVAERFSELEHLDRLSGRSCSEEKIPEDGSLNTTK
Sequence of biotinylated avi-tagged TβRII (human) (P37173 23-567): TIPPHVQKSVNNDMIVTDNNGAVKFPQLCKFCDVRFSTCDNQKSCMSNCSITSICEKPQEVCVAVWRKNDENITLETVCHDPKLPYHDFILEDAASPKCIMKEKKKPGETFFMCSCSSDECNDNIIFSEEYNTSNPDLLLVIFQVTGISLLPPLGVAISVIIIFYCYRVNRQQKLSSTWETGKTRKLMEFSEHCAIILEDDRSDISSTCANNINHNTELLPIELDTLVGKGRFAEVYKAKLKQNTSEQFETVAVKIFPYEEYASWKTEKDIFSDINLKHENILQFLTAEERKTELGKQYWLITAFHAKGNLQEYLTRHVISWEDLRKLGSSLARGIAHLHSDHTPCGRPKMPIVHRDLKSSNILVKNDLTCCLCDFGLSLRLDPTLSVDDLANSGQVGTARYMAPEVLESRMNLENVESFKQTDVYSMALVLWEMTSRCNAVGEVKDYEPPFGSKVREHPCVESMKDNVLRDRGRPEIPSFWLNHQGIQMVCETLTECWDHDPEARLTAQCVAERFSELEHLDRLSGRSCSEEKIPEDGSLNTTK

In experiment [1], “TGF-β3:TβRII binary complex (from UniProt P37173 23-166)” yielded a Kd of 61.7 nM and a dH of -4.21 kcal/mol.
TGM domain 2 (domain or fragment) had a stoichiometry N in experiment [2] of 1. This substance also returned a Kd in experiment [3] of 309 nM. In addition, in experiment [1], the dissociation constant Kd came out at 1470 nM and the dH is -17.7 kcal/mol.
As to TGM domain 3 (domain or fragment), the Kd in experiment [4] turned out to be 910 nM. Further, in experiment [5], the Kd amounted to 1150 nM and the dH is -10.7 kcal/mol.
With “TGM domains 1 and 2 (domain or fragment)”, the Kd in experiment [3] amounted to 24100 nM; in experiment [1], 25.3 nM. For the same substance, the dH in experiment [1] is -18.7 kcal/mol.
For the substance “full-length TGM (TGF-β mimic of Heligmosomoides polygyrus) (natural protein)”, the Kd in experiment [3] is 13.1 nM; in experiment [4], 610 nM; in experiment [5] it was 550 nM; in experiment [1], 52.1 nM. Besides, the dH was -7.14 kcal/mol in experiment [5] and -16.7 kcal/mol in experiment [1].
